Test results: patent US12359237
Changes are numbered by the printed parent chain.

Key:
[1] = tested on: T1, S11A mutant precursor peptide of LazA*
T1 sequence: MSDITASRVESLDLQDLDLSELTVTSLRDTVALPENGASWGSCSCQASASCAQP

[2] = tested on: T2, S12A mutant precursor peptide of LazA*
T2 sequence: T1 sequence with A49S, S50A

[3] = tested on: T3, S10A mutant precursor peptide of LazA*
T3 sequence: T1 sequence with S48A, A49S

[4] = tested on: T4, C13A mutant precursor peptide of LazA*
T4 sequence: T1 sequence with A49S, C51A

[5] = tested on: T5, 4SCSC7_4AAAA7 precursor peptide
T5 sequence: T1 sequence with S42A, C43A, S44A, C45A, A49S

“LazC (macrocyclase of lactazole biosynthesis, His-Tag-bound recombinant protein)” was tested, and the “leader peptide cleaved off through LazC reaction (LC-MS chromatogram)” value [1] was “such a leader peptide was hardly seen in S11A and S12A”, the “leader peptide cleaved off through LazC reaction (LC-MS chromatogram)” value [2] was “such a leader peptide was hardly seen in S11A and S12A” and the “leader peptide cleaved off through LazC reaction (LC-MS chromatogram)” value [3] was “Ser (10) and Cys (13) are also relatively important”. For the same substance, the “leader peptide cleaved off through LazC reaction (LC-MS chromatogram)” value [4] was “A leader peptide cleaved off was slightly seen in S11A and C13A” and the “leader peptide elimination (LC-MS chromatogram of the leader peptide cleaved off through LazC reaction)” value [5] was “Leader peptide elimination was also seen in the 4SCSC7_4AAAA7 precursor peptide at a level equivalent to LazA*”.
